Experimental data published in patent US20040076995A1, “Nurr1 transcription factor 1-box mutants having monomeric transcriptional activation activity” (priority 2001, published 2004).
Changes are numbered by the printed parent chain. Numbers in names are those of the source.

Key:
[1] = molecular target: T1, VP16-RXR (herpes simplex VP16 trans-activation domain followed by the complete coding sequence of human RXRα) (herpes simplex; human, UniProt P19793 1-462); test: mammalian two-hybrid assay, JEG3 cells
T1 construct: Two-hybrid prey, expressed in JEG3 cells; also called pCMX-VP16-RXR
T1 sequence: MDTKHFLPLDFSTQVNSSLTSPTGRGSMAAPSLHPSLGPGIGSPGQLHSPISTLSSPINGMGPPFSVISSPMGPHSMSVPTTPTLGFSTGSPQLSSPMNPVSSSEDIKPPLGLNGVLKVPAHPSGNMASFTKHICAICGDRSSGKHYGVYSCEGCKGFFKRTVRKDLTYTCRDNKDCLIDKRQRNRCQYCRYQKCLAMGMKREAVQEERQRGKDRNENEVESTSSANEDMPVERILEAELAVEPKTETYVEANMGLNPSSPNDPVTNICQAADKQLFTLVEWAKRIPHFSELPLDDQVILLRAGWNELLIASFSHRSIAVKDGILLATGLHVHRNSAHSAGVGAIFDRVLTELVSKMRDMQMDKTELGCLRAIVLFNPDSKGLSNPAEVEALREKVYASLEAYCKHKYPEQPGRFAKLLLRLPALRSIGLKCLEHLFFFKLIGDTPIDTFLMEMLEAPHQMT

Nurr1 KLL(554-556)AAA = Nurr1 KLL(554-556)AAA (Mus musculus, UniProt Q06219 Q06219:1-598, K554A,L555A,L556A); test: EMSA; monomeric DNA binding not influenced; betaRE is the only probe described; settings: label: 32P (Klenow fill-in)
Procedure: (§1) The DNA-binding experiments were carried out as described by Castro et al. 1999. Briefly, Nurr1 and RXR proteins for gel mobility shift assays were produced by coupled in vitro transcription and translation in reticulocyte lysates according to the manufacturer's instructions (TNT Quick Coupled Trans cription/Translation System™; Promega). The proteins were incubated in a binding buffer containing 10 mM Tris (pH 8.0), 40 mM KCI, 0.05% NP-40, 6% glycerol, 1 mM DTT, 0.2mg poly(dI-dC) and protease inhibitors. βRE-probe (agcttaagg[…]ctcgcat; SEQ ID NO:9) was labelled with ³²P by fill-in reaction using Klenow fragment. After addition of the probe, the reactions were incubated on ice for 20 min. Protein-DNA complexes were resolved by electrophoresis on 4% non-denaturating polyacrylamide gel in 0.5×TBE. After electrophoresis, the gels were dried for autoradiography.

Nurr1 P560A = Nurr1 P560A (Mus musculus, UniProt Q06219 Q06219:1-598, P560A); test: as above; settings: label: 32P (Klenow fill-in)
Procedure: as §1

Nurr1 PEL(560-562)AAA = Nurr1 PEL(560-562)AAA (Mus musculus, UniProt Q06219 Q06219:1-598, P560A,E561A,L562A); test: as above; settings: label: 32P (Klenow fill-in)
Procedure: as §1

Nurr1 GKL(557-559)AAA = Nurr1 GKL(557-559)AAA (Mus musculus, UniProt Q06219 Q06219:1-598, G557A,K558A,L559A); test: as above; settings: label: 32P (Klenow fill-in)
Procedure: as §1

[2] = molecular target: Nurr1 wild type/RXR heterodimer (Mus musculus / Homo sapiens?, UniProt Q06219;P19793 Q06219:1-598,P19793:1-462); test: EMSA; heterodimer; 10 mM Tris pH 8.0, 40 mM KCl, poly(dI-dC), on ice; settings: label: 32P (Klenow fill-in)
Procedure: as §1

[3] = molecular target: Nurr1 PEL(560-562)AAA + RXR (Mus musculus / Homo sapiens?, UniProt Q06219;P19793 Q06219:1-598,P19793:1-462, Nurr1 P560A,E561A,L562A); test: EMSA; no heterodimer on DNA; monomeric binding retained; settings: label: 32P (Klenow fill-in)
Procedure: as §1

Nurr1 P560A + RXR = Nurr1 P560A + RXR (Mus musculus / Homo sapiens?, UniProt Q06219;P19793 Q06219:1-598,P19793:1-462, Nurr1 P560A); test: as above; settings: label: 32P (Klenow fill-in)
Procedure: as §1

Nurr1-RXR heterodimer = test: Nurr1-RXR heterodimer-mediated transactivation, βRE luciferase reporter in JEG3 cells; format: cell-based, human; settings: βRE-tk luciferase reporter, RXR ligand SR11237 1 μM, effect of the mutation vs wild-type Nurr1
Procedure: The wild-type and mutated Nurr1 derivatives were transfected in JEG3 cells. The ability to transactivate was assessed using a luciferase reporter gene driven by three copies of the hRARβ2 promoter RARE (βRE) upstream of a thymidine kinase promoter.
The influence of the I-box mutations on Nurr1 transcriptional activity and on the ability to interact with RXR was examined as described by Perlmann and Jansson 1995, Zetterström et al. 1996, and Castro et al. 1999. Nurr1-RXR heterodimer-mediated transactivation was studied in human chorion carcinoma JEG3 cells. The cells were maintained in minimum essential medium supplemented with 10% fetal calf serum. Transfections were performed in quadruplicates in 24-well plates using the calcium phosphate precipitation method. The cells were plated 24 h prior to the transfection. Each well was transfected with 100 ng of the expression vector for the Nurr1 variants, 100 ng of a reporter plasmid, and 200 ng of βgalactoside plasmid that was used as an internal control for transfection efficiency. The luciferase reporter used was driven by three copies of the retinoid acid response element (RARE) of the human retinoid acid receptorβ2 (hRARβ2) gene promoter (βRE) upstream of the thymidine kinase promoter. 6-8 hours after transfection, the cells received fresh medium supplemented with 10% charcoal-stripped fetal calf,serum and RXR ligand (SR11237;1 μM). The cells were harvested 24 hours late and lysed. The cells extracts were assayed for luciferase and βgalactosidase activity. The ability of the Nurr1 mutants to interact with RXR was examined using the mammalian two-hybrid assay. The ligand-binding domains (amino acids 353-598; LBD) of both wild-type and mutated Nurr1 variants were cloned in frame with the yeast Gal4 DNA-binding domain (amino acids 1-147) in the pCMX-Gal4 expression vector (Perlmann and Jansson 1995). JEG3 cells were cotransfected with pCMX-Gal4-Nurr1-LBD derivatives and pCMX-VP16-RXR containing the herpes simplex VP16 trans-activation domain followed by the complete coding sequence of human RXRα. A reporter gene with four copies of the Gal4-binding sites was used.

[4] = tested on: NGFI-B response element (NBRE) reporter; test: Monomeric reporter gene activation, NBRE reporter in 293 cells (full-length receptor); format: cell-based, human; settings: three copies of NBRE reporter, effect of the mutation vs wild-type Nurr1
Procedure: The monomeric activity was examined in 293 cells. The full-length receptor derivatives were studied using a reporter gene regulated by three copies of the NGFI-B binding site (NBRE; FIG. A).
The ability of the mutants to activate reporter gene expression as monomers were studied in human embryonic kidney 293 cells. The cells were maintained in Dulbecco's modified Eagles medium with 10% fetal calf serum. Transfections were carried out as with JEG3 cells except that a reporter regulated by three copies of the NGFI-B (nerve growth factor inducible-B)response element (Wilson et al., 1991) (NBREs) was used. The transcriptional activities of the mutated ligand-binding domains were assessed as fusions to the Gal4 DNA-binding domain and a reporter gene with four copies of the Gal4-binding sites was used. All the transfection experiments were performed in quadruplicate dishes and each experiment has been repeated at least twice with essentially identical results. The results of a representative experiment are shown.

B1: Gal4 DNA-binding domain fused to Nurr1 ligand-binding domain (amino acids 353-598) KLL(554-556)AAA (other, yeast;mouse, UniProt P04386 1-147, looked up)
chain: MKLLSSIEQACDICRLKKLKCSKEKPKCAKCLKNNWECRYSPKTKRSPLTRAHLTEVESRLERLEQLFLLIFPREDLDMILKMDSLQDIKALLTGLFVQDNVNKDAVTDRLASVETDMPLTLRQHRISATSSSEESSNKGQRQLTVSQDPSPPSPPVSLISALVRAHVDSNPAMTSLDYSRFQANPDYQMSGDDTQHIQQFYDLLTGSMEIIRGWAEKIPGFADLPKADQDLLFESAFLELFVLRLAYRSNPVEGKLIFCNGVVLHRLQCVRGFGEWIDSIVEFSSNLQNMNIDISAFSCIAALAMVTERHGLKEPKRVEELQNKIVNCLKDHVTFNNGGLNRPNYLSAAAGKLPELRTLCTQGLQRIFYLKLEDLVPPPAIIDKLFLDTLPF
notes: range 1-147;range 353-598; Two-hybrid bait, expressed in JEG3 cells; also called pCMX-Gal4-Nurr1-LBD derivative KLL(554-556)AAA
binding result [1]: no binding

B2: Gal4 DNA-binding domain fused to Nurr1 ligand-binding domain (amino acids 353-598) GKL(557-559)AAA (other, yeast;mouse, UniProt P04386 1-147, looked up)
chain: B1 chain with A349K, A350L, A351L, G352A, K353A, L354A
notes: range 1-147;range 353-598; Two-hybrid bait, expressed in JEG3 cells; also called pCMX-Gal4-Nurr1-LBD derivative GKL(557-559)AAA
binding result [1]: no binding

B3: Gal4 DNA-binding domain fused to Nurr1 ligand-binding domain (amino acids 353-598) PEL(560-562)AAA (other, yeast;mouse, UniProt P04386 1-147, looked up)
chain: B1 chain with A349K, A350L, A351L, P355A, E356A, L357A
notes: range 1-147;range 353-598; Two-hybrid bait, expressed in JEG3 cells
binding result [1]: no binding

B4: betaRE probe (hRARbeta2 promoter RARE) (dsDNA)
DNA 1: AGCTTAAGGGGTTCACCGAAAGTTCACTCGCAT
DNA 2: ATGCGAGTGAACTTTCGGTGAACCCCTTAAGCT
binding result (Nurr1 KLL(554-556)AAA): binds | binding result (Nurr1 P560A): binds | binding result (Nurr1 PEL(560-562)AAA): binds | binding result (Nurr1 GKL(557-559)AAA): binds | binding result [2]: binds | binding result [3]: no binding | binding result (Nurr1 P560A + RXR): no binding

B5: KLL(554-556)AAA: mouse Nurr1 I-box mutant, residues Lys554-Leu555-Leu556 substituted by three alanines (protein)
chain: MPCVQAQYGSSPQGASPASQSYSYHSSGEYSSDFLTPEFVKFSMDLTNTEITATTSLPSFSTFMDNYSTGYDVKPPCLYQMPLSGQQSSIKVEDIQMHNYQQHSHLPPQSEEMMPHSGSVYYKPSSPPTPSTPSFQVQHSPMWDDPGSLHNFHQNYVATTHMIEQRKTPVSRLSLFSFKQSPPGTPVSSCQMRFDGPLHVPMNPEPAGSHHVVDGQTFAVPNPIRKPASMGFPGLQIGHASQLLDTQVPSPPSRGSPSNEGLCAVCGDNAACQHYGVRTCEGCKGFFKRTVQKNAKYVCLANKNCPVDKRRRNRCQYCRFQKCLAVGMVKEVVRTDSLKGRRGRLPSKPKSPQDPSPPSPPVSLISALVRAHVDSNPAMTSLDYSRFQANPDYQMSGDDTQHIQQFYDLLTGSMEIIRGWAEKIPGFADLPKADQDLLFESAFLELFVLRLAYRSNPVEGKLIFCNGVVLHRLQCVRGFGEWIDSIVEFSSNLQNMNIDISAFSCIAALAMVTERHGLKEPKRVEELQNKIVNCLKDHVTFNNGGLNRPNYLSAAAGKLPELRTLCTQGLQRIFYLKLEDLVPPPAIIDKLFLDTLPF
ability of Nurr1 to promote RXR-mediated transactivation (Nurr1-RXR heterodimer): abolished | ability to activate reporter gene expression as monomers (monomeric activity) [4]: intact

B6: L562A: mouse Nurr1 I-box mutant, Leu562 substituted by alanine (protein)
chain: B5 chain with A554K, A555L, A556L, L562A
ability of Nurr1 to promote RXR-mediated transactivation (Nurr1-RXR heterodimer): reduced

B7: P560A: mouse Nurr1 I-box mutant, Pro560 substituted by alanine (protein)
chain: B5 chain with A554K, A555L, A556L, P560A
ability of Nurr1 to promote RXR-mediated transactivation (Nurr1-RXR heterodimer): abolished | ability to activate reporter gene expression as monomers (monomeric activity) [4]: no effect

B8: E561A: mouse Nurr1 I-box mutant, Glu561 substituted by alanine (protein)
chain: B5 chain with A554K, A555L, A556L, E561A
ability of Nurr1 to promote RXR-mediated transactivation (Nurr1-RXR heterodimer): no effect

B9: PEL(560-562.)AAA: mouse Nurr1 I-box mutant, residues 560-562 (PEL) substituted by three alanines (protein)
chain: B5 chain with A554K, A555L, A556L, P560A, E561A, L562A
ability of Nurr1 to promote RXR-mediated transactivation (Nurr1-RXR heterodimer): abolished | ability to activate reporter gene expression as monomers (monomeric activity) [4]: intact

B10: K558A: mouse Nurr1 I-box mutant, Lys558 substituted by alanine (protein)
chain: B5 chain with A554K, A555L, A556L, K558A
ability of Nurr1 to promote RXR-mediated transactivation (Nurr1-RXR heterodimer): only a modest effect

B11: GKL(557-559)AAA: mouse Nurr1 I-box mutant, residues 557-559 (GKL) substituted by three alanines (protein)
chain: B5 chain with A554K, A555L, A556L, G557A, K558A, L559A
ability of Nurr1 to promote RXR-mediated transactivation (Nurr1-RXR heterodimer): abolished | ability to activate reporter gene expression as monomers (monomeric activity) [4]: intact
